EP4491629A1 (Université de Lorraine, dated 2025)
Residue numbers refer to the chain shown, from its start. Numbers in names are those of the source.

B1: Cricetulus griseus galectin-1 (wild-type), produced from the pCarONE vector (other)
chain: ACGLVASNLNLKPGECLKVRGEVAPDAKSFVLNLGKDSNNLCLHFNPRFNAHGDANTIVCNSKDNGAWGTEHREPAFPFQPGSTVEVCITFDQADLTIKLPDGHEFKFPNRLNMEAINYMAADGDFKIKCVAFE
notes: Lectin; recombinant from E. coli; The entries are about self-association (homodimer, printed as 2x16.6 kDa); also called Gal1 wild-type; Gal1; not shown: spacer arm and TEV protease cleavage site encoded by pCarONE
B2: E16K mutant of Cricetulus griseus galectin-1 (other)
chain: B1 chain with E15K
notes: Recombinant from E. coli; tested for self-association by size exclusion chromatography; also called Gal1 E16K; Gal1 mutant E16K; not shown: spacer arm and TEV protease cleavage site encoded by pCarONEE16K
B3: C131E mutant of Cricetulus griseus galectin-1 (other)
chain: ACGLVASNLNLKPGECLKVRGEVAPDAKSFVLNLGKDSNNLCLHFNPRFNAHGDANTIVCNSKDNGAWGTEHREPAFPFQPGSTVEVCITFDQADLTIKLPDGHEFKFPNRLNMEAINYMAADGDFKIKEVAFEELSSGVDLGTENLYFQS
notes: also called Gal1 C131E; Gal1 mutant C131E

Target: the molecule itself
Experiment: size exclusion chromatography (Superdex 75); self-association

Row | Protein | binding result
1 | B1 | binds
2 | B2 | binds
3 | B3 | no binding
